Data: the Immune Epitope Database (IEDB)

Tests used:
[1] = target: HLA-B*40:01; assay: IEDB peptide-MHC binding, purified MHC/competitive/radioactivity; filed as Kd, often an IC50 or EC50 that approximates it; ≥ and ≤ were set here for values at or beyond the usual limits of such assays
[2] = target: HLA-B*18:01; assay: as above
[3] = target: HLA-B*45:01; assay: as above
[4] = target: HLA-B*44:02; assay: as above
[5] = target: HLA-B*44:03; assay: as above
[6] = target: HLA-B*40:02; assay: as above
[7] = target: HLA-B*15:03; assay: as above; conditions: source organism: Vaccinia virus
[8] = target: HLA-B*15:01; assay: IEDB peptide-MHC binding, purified MHC/competitive/fluorescence; filed as Kd, often an IC50 or EC50 that approximates it; ≥ and ≤ were set here for values at or beyond the usual limits of such assays
[9] = target: HLA-A*03:01; assay: as above
[10] = target: HLA-B*07:02; assay: IEDB peptide-MHC binding, purified MHC/competitive/radioactivity; filed as Kd, often an IC50 or EC50 that approximates it; ≥ and ≤ were set here for values at or beyond the usual limits of such assays; conditions: source organism: Hepacivirus hominis
[11] = target: HLA-B*54:01; assay: as above; conditions: source organism: Hepacivirus hominis
[12] = target: HLA-A*02:02; assay: as above; conditions: source organism: Hepacivirus hominis
[13] = target: HLA-B*35:01; assay: as above; conditions: source organism: Hepacivirus hominis
[14] = target: HLA-A*11:01; assay: as above; conditions: source organism: Hepacivirus hominis
[15] = target: HLA-A*02:06; assay: as above; conditions: source organism: Hepacivirus hominis
[16] = target: HLA-A*02:01; assay: as above; conditions: source organism: Hepacivirus hominis
[17] = target: HLA-B*08:01; assay: as above; conditions: source organism: Hepacivirus hominis
[18] = target: HLA-A*03:01; assay: as above; conditions: source organism: Hepacivirus hominis
[19] = target: HLA-B*53:01; assay: as above; conditions: source organism: Hepacivirus hominis
[20] = target: HLA-A*01:01; assay: as above; conditions: source organism: Hepacivirus hominis
[21] = target: HLA-A*68:01; assay: as above; conditions: source organism: Hepacivirus hominis
[22] = target: HLA-A*31:01; assay: as above; conditions: source organism: Hepacivirus hominis
[23] = target: HLA-A*02:03; assay: as above; conditions: source organism: Hepacivirus hominis
[24] = target: HLA-A*33:01; assay: as above; conditions: source organism: Hepacivirus hominis
[25] = target: HLA-A*68:02; assay: as above; conditions: source organism: Hepacivirus hominis
[26] = target: HLA-B*51:01; assay: as above; conditions: source organism: Hepacivirus hominis
[27] = target: HLA-A*03:01; assay: IEDB peptide-MHC binding, purified MHC/direct/fluorescence; filed as Kd, often an IC50 or EC50 that approximates it; ≥ and ≤ were set here for values at or beyond the usual limits of such assays; conditions: source organism: Reston ebolavirus - Reston
[28] = target: HLA-B*57:01; assay: IEDB peptide-MHC binding, purified MHC/competitive/fluorescence; filed as Kd, often an IC50 or EC50 that approximates it; ≥ and ≤ were set here for values at or beyond the usual limits of such assays; conditions: source organism: Reston ebolavirus
[29] = target: HLA-B*18:01; assay: as above; conditions: source organism: Reston ebolavirus
[30] = target: HLA-A*02:01; assay: as above; conditions: source organism: Reston ebolavirus
[31] = target: HLA-B*39:01; assay: as above; conditions: source organism: Reston ebolavirus
[32] = target: HLA-B*27:03; assay: as above; conditions: source organism: Reston ebolavirus
[33] = target: HLA-A*69:01; assay: as above; conditions: source organism: Reston ebolavirus
[34] = target: HLA-B*51:01; assay: as above; conditions: source organism: Reston ebolavirus
[35] = target: HLA-B*46:01; assay: as above; conditions: source organism: Reston ebolavirus
[36] = target: HLA-A*26:01; assay: as above; conditions: source organism: Reston ebolavirus
[37] = source organism: Mammarenavirus machupoense
[38] = source organism: Mammarenavirus lassaense
[39] = source organism: SARS coronavirus Tor2
[40] = source organism: Shigella flexneri 5 str. 8401
[41] = source organism: Mammarenavirus guanaritoense
[42] = source organism: Giardia lamblia ATCC 50803
[43] = source organism: Hepacivirus hominis
[44] = source organism: Mammarenavirus choriomeningitidis
[45] = source organism: Mammarenavirus whitewaterense
[46] = source organism: Lymphocytic choriomeningitis virus (strain Armstrong)

For EDIAMGYVV, the Kd [1, 37] was ≥ 45.3 µM, the Kd [2, 37] was 1.5 µM and the Kd [3, 37] was 2.26 µM. The Kd [4, 37] was 10.3 µM, the Kd [5, 37] was ≥ 38.4 µM and the Kd [6, 37] was 0.0698 µM.
VQTIVFIWF was tested, and the Kd [7] was 0.306 µM.
Work on IEEIMNIVLI yielded a Kd [1, 38] of 1.81 µM, a Kd [2, 38] of 3.15 µM and a Kd [3, 38] of 1.3 µM. It also gave a Kd [4, 38] of 0.151 µM, a Kd [5, 38] of 0.445 µM and a Kd [6, 38] of 0.0984 µM.
Work on WEIQQVVDA yielded a Kd [1, 39] of 1.03 µM, a Kd [2, 39] of 4.92 µM and a Kd [3, 39] of 0.135 µM. For the same sequence, the Kd [4, 39] was ≥ 30.3 µM, the Kd [5, 39] was 9.04 µM and the Kd [6, 39] was 0.0543 µM.
With NELQTLPSL the Kd [8, 40] was ≥ 20 µM and the Kd [9, 40] was ≥ 20 µM.
For RDLVISDSS, the Kd [1, 41] was ≥ 53.4 µM, the Kd [2, 41] was ≥ 77.5 µM and the Kd [3, 41] was ≥ 77.7 µM. The Kd [4, 41] was ≥ 77.9 µM, the Kd [5, 41] was ≥ 35.8 µM and the Kd [6, 41] was 2.49 µM.
LMLASSAGK gave a Kd [9, 42] of 0.0078 µM.
In the case of VELVAEMDG, the Kd [1, 39] is reported as ≥ 76.2 µM, the Kd [2, 39] is reported as ≥ 28.3 µM and the Kd [3, 39] is reported as ≥ 29.4 µM. The Kd [4, 39] was 10.6 µM, the Kd [5, 39] was ≥ 24.5 µM and the Kd [6, 39] was ≥ 77.3 µM.
With ADSLDFTQV the Kd [1, 41] was ≥ 64.9 µM, the Kd [2, 41] was ≥ 66.5 µM and the Kd [3, 41] was 6.12 µM. For the same sequence, the Kd [4, 41] was 12.6 µM, the Kd [5, 41] was ≥ 33.3 µM and the Kd [6, 41] was 5.85 µM.
With PEFDWILGW the Kd [1, 41] was ≥ 76.1 µM, the Kd [2, 41] was 5.12 µM and the Kd [3, 41] was ≥ 77.7 µM. For the same sequence, the Kd [4, 41] was 0.212 µM, the Kd [5, 41] was 0.0274 µM and the Kd [6, 41] was ≥ 22 µM.
Work on LMLASSAGH yielded a Kd [9, 42] of 0.559 µM.
In the case of AEIRASANLA, the Kd [1, 39] is reported as 0.202 µM, the Kd [2, 39] is reported as 8.13 µM and the Kd [3, 39] is reported as 0.00463 µM. For the same sequence, the Kd [4, 39] was 0.0801 µM, the Kd [5, 39] was 0.0986 µM and the Kd [6, 39] was 2.25 µM.
SEILKTLGF showed a Kd [1, 37] of 1 µM, a Kd [2, 37] of 0.655 µM and a Kd [3, 37] of 1.61 µM. For the same sequence, the Kd [4, 37] was 0.00421 µM, the Kd [5, 37] was 0.0141 µM and the Kd [6, 37] was 0.165 µM.
With TERLKLFAA the Kd [1, 39] was 19.2 µM, the Kd [2, 39] was 0.301 µM and the Kd [3, 39] was 0.00473 µM. For the same sequence, the Kd [4, 39] was ≥ 65.8 µM, the Kd [5, 39] was ≥ 41.2 µM and the Kd [6, 39] was 0.024 µM.
For RDWAHNSL, the Kd [10] was 5.68 µM, the Kd [11] was ≥ 87.7 µM and the Kd [12] was ≥ 70 µM. The Kd [1, 43] was ≥ 88.9 µM, the Kd [13] was ≥ 87.8 µM and the Kd [2, 43] was ≥ 88.6 µM. For the same sequence, the Kd [14] was ≥ 87 µM, the Kd [4, 43] was ≥ 75.4 µM and the Kd [15] was ≥ 55.7 µM. The Kd [16] was ≥ 69.4 µM, the Kd [17] was ≥ 83.4 µM and the Kd [18] was ≥ 87.3 µM. The Kd [5, 43] was ≥ 87.2 µM, the Kd [19] was ≥ 87.7 µM and the Kd [20] was 1.8 µM. The Kd [21] was ≥ 87.9 µM, the Kd [22] was ≥ 67.1 µM and the Kd [23] was ≥ 70.4 µM. For the same sequence, the Kd [24] was ≥ 78.4 µM, the Kd [25] was ≥ 69.8 µM and the Kd [6, 43] was ≥ 89.5 µM. For the same sequence, the Kd [26] was ≥ 87.3 µM.
For KELSPRWYFY, the Kd [1, 39] was 8.57 µM, the Kd [2, 39] was 6.75 µM and the Kd [3, 39] was 4.23 µM. The Kd [4, 39] was 0.00979 µM, the Kd [5, 39] was 0.0126 µM and the Kd [6, 39] was 0.309 µM.
For NDSILSHNF, the Kd [1, 44] was ≥ 76.1 µM, the Kd [2, 44] was 0.423 µM and the Kd [3, 44] was ≥ 77.7 µM. The Kd [4, 44] was 0.182 µM, the Kd [5, 44] was 11.4 µM and the Kd [6, 44] was 5.93 µM.
LDIQKCGEL was tested, and the Kd [1, 45] was ≥ 46.7 µM, the Kd [2, 45] was ≥ 53.2 µM and the Kd [3, 45] was ≥ 56.9 µM. For the same sequence, the Kd [4, 45] was ≥ 77.9 µM, the Kd [5, 45] was ≥ 78.1 µM and the Kd [6, 45] was 9.66 µM.
Work on ALTSAMLDR yielded a Kd ([9]; source organism: Yersinia pestis Antiqua) of 0.0381 µM.
ALYEENALK was tested, and the Kd [27] was 1.84 µM, the Kd ([8]; source organism: Reston ebolavirus) was ≥ 20 µM and the Kd [28] was ≥ 20 µM. For the same sequence, the Kd [29] was ≥ 20 µM, the Kd [30] was ≥ 20 µM and the Kd [31] was ≥ 20 µM. For the same sequence, the Kd [32] was ≥ 20 µM, the Kd [33] was ≥ 20 µM and the Kd [34] was ≥ 20 µM. For the same sequence, the Kd [35] was ≥ 20 µM and the Kd [36] was ≥ 20 µM.
In the case of VEYPIIGDEL, the Kd [1, 39] is reported as 0.00504 µM, the Kd [2, 39] is reported as 15.2 µM and the Kd [3, 39] is reported as 2.23 µM. For the same sequence, the Kd [4, 39] was 4.81 µM, the Kd [5, 39] was 0.282 µM and the Kd [6, 39] was 0.5 µM.
In the case of SEMVMCGGSL, the Kd [1, 39] is reported as 0.000475 µM, the Kd [2, 39] is reported as 0.355 µM and the Kd [3, 39] is reported as 0.0163 µM. For the same sequence, the Kd [4, 39] was 0.00224 µM, the Kd [5, 39] was 0.0123 µM and the Kd [6, 39] was 1.02 µM.
In the case of REPVDQKQF, the Kd [1, 46] is reported as ≥ 40.5 µM, the Kd [2, 46] is reported as ≥ 47.6 µM and the Kd [3, 46] is reported as ≥ 77.7 µM. For the same sequence, the Kd [4, 46] was 1.63 µM, the Kd [5, 46] was 7.92 µM and the Kd [6, 46] was 11.9 µM.
With FELTSMKYF the Kd [1, 39] was 10.7 µM, the Kd [2, 39] was 3.72 µM and the Kd [3, 39] was ≥ 33.9 µM. The Kd [4, 39] was 0.0927 µM, the Kd [5, 39] was 0.161 µM and the Kd [6, 39] was 2.32 µM.
